Assay results published in publication PMC11369174 (Molecular Systems Biology, 2024).
Where no end group is shown, it is not given here.

Key:
Assay in all cases: fluorescence polarisation; saturation binding: dilution series of the protein domain added to 10 nM FITC-labelled peptide; 50 mM sodium phosphate pH 7.4, 0.05% Tween (protein dialysed in 50 mM sodium phosphate with 1 mM DTT; CASK kinase domain with 100 mM NaCl in addition); quadratic fit; technical triplets
Conditions in all cases: both partners purified
GABARAPL1 ATG8 domain = biological target: T1, GABARAPL1 ATG8 domain (human)
T1 construct: GABARAPL1, human, ATG8 domain; source: E. coli BL21 (DE3) Gold, purified (glutathione or Ni2+ beads)

MAP1LC3B ATG8 domain = MAP1LC3B ATG8 domain (human, UniProt Q9GZQ8 1-120)
MAP1LC3A ATG8 domain = biological target: T2, MAP1LC3A ATG8 domain (human)
T2 construct: MAP1LC3A, human, ATG8 domain; source: E. coli BL21 (DE3) Gold, purified (glutathione or Ni2+ beads)

USP7 MATH/TRAF domain = biological target: T3, USP7 MATH/TRAF domain (human)
T3 construct: USP7, human, MATH/TRAF domain; source: E. coli BL21 (DE3) Gold, purified (glutathione or Ni2+ beads)

Row | Binder | Kd (GABARAPL1 ATG8 domain) [µM] | Kd (MAP1LC3B ATG8 domain) [µM] | Kd (MAP1LC3A ATG8 domain) [µM] | Kd (USP7 MATH/TRAF domain) [µM]
1 | DDDWTHLSSK (also: FITC label, position not given here) [FITC-SQSTM1] | 3.7 | 1.4 | 0.68 | –
2 | DYSQPSTSSSIIY (also: FITC label, position not given here) [FITC-MDM2] | – | – | – | 0.5
